Results: article PMC9798831

T1: ShTniQ;ShTnsC (Scytonema hofmanni;Scytonema hofmanni, UniProt A0ABR8GRC6;A0ABR8GR16 1-167;1-276, |)
T1 sequence 1: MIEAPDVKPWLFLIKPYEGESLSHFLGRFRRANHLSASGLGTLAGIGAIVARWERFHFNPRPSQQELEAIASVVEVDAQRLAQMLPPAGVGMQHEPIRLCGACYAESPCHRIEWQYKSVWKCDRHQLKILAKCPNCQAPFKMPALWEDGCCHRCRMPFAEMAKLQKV
T1 sequence 2: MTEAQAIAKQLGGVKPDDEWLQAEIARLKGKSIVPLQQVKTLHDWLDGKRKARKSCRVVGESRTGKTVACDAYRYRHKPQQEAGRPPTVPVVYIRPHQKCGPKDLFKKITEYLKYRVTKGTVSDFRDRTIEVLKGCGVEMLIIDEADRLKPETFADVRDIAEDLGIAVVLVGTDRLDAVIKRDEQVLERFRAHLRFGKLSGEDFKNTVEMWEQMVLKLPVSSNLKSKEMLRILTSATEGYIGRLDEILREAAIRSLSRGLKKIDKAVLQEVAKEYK


Columns and labels:
[1] = biological target: ShTnsC (Scytonema hofmanni)
ShTniQ;ShTnsC = biological target: T1, ShTniQ;ShTnsC; test: cryo-EM

site-specific transposition activity of ShCAST in E. coli (ddPCR) [1] [% reduction] | Molecule | binding result (ShTniQ;ShTnsC)
> 90 | TniQ with alanine substitution of Trp10 (natural protein) | 
50 | TniQ with glutamate substitution of Arg155 (natural protein) | 
 | Target_69 duplex (oIQ088/oIQ089) (dsDNA) DNA 1: GCGAAGGCTTAATCATCGTGGATGAAGCCGACCACCTCGATTACCCCACGCTTGAAGAACTGCGGATCC DNA 2: GGATCCGCAGTTCTTCAAGCGTGGGGTAATCGAGGTGGTCGGCTTCATCCACGATGATTAAGCCTTCGC | binds
